Assay results as given in publication PMC12285254.

Test system: T1, TetR1 (C_22735) (Pseudomonas syringae pv. actinidiae biovar 3 strain S26 (M228)), ORF:bd32bde6
T1 sequence: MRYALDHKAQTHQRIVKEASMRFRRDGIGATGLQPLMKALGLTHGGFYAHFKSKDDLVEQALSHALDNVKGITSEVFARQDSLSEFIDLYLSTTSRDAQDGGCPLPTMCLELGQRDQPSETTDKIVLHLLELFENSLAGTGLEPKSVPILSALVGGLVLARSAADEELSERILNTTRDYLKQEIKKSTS
Assay: EMSA
Settings: LightShift EMSA Optimization and Control kit (Thermo) per manufacturer, 100 ng probe per reaction, varied protein; 2 uL of 1 mg/mL Myc.A7 for supershift …

## TTGAGTCGAGGATCACAATCTTCTGAAACATGGGCTTACCCTGATTTAATGGTGTGCAAGCCCTATAGCGATAACCATGCCAGCTTAAAAATATAAATAAGCCACTGATTTATAACGATATTTTAAAATATGAAATCCTTTGCAATACAAAACTTTGCGCAAACCGTTTTTTGCCACAACAGCTTTTGGCACAAAAACATCGGCCAGCTTCGCAAGGGAACTGATCCGGGACCGTGACCCACTCAGCGAACATAACCCGGCT (double strand) [hrpL upstream probe (262 bp)]
  binding: binds
